Data taken from patent US20250368744A1 (CONCEPT TO MEDICINE BIOTECH, published 2025).

What was measured:
[1] = target: T1, human C-C motif chemokine receptor 8 (CCR8) (human, UniProt P51685 1-355); test: cell-based or functional assay
[2] = target: T1, human C-C motif chemokine receptor 8 …; test: FACS (MFI-PE) on CHO-K1 hCCR8 cells
cyno CCR8 = target: T2, cyno CCR8 (cynomolgus, UniProt G7NYJ2 1-355); test: FACS (MFI-PE) on CHO-K1 cyno CCR8 cells; fitted value far outside the range tested (up to 100 nM)
T2 construct: whole, on cells; also called cynomolgus CCR8 protein
T2 sequence (G7NYJ2 entry or part of it): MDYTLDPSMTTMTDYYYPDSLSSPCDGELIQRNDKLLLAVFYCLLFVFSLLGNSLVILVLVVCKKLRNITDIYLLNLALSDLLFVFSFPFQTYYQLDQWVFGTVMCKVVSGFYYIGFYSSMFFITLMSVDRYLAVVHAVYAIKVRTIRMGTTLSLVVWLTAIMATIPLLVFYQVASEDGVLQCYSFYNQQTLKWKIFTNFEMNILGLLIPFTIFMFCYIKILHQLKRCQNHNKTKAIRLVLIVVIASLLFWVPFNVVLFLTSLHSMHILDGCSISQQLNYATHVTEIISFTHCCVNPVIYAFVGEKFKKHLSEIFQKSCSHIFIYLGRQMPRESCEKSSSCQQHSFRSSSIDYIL

T1 sequence (P51685 whole entry): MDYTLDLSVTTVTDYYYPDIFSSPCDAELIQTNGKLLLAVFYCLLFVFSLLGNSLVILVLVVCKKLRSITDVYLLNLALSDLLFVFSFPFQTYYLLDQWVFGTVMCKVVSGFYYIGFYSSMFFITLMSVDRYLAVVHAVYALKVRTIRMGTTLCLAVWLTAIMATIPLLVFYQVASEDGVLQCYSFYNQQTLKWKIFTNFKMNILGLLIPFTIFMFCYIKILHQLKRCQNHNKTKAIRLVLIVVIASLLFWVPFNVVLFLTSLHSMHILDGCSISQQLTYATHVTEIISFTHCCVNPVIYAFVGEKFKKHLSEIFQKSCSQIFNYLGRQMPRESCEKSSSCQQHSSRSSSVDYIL

B1: 200C9B9-C1 (antibody, V domains shown)
VH: EVQLVESGGGLVQPKGSLKLSCAASGFSFNTYVMNWVRQAPGKGLNWVARIRTKSNNYATFYVDSVKDRFTISRDDSENMLYLQMNNLKIEDTAIYYCVSGTITRLGAGLDYWGQGTSVTVSS
VL: DIVMTQAAPSVPVTPGESVSISCRSSKSLLHSQGNTYLYWFLQRPGQSPQLLIYRMSNLASGVPDRFSGSGSGTAFTLRISRVEAEDVGVYYCMQHLEYPFTFGGGTKLEIK
notes: also called 200C9B9 VH with 200C9B9 VL NG-QG
With B1 the “IC50, hCCL1-induced beta-arrestin recruitment (RLU), CHO-K1 hCCR8 cells” value [1] was 0.154 nM, the EC50 [2] was 0.399 nM and the EC50 (cyno CCR8) was over 100 nM.
